Experimental data reported in paper PMC6033261 (Methods in molecular biology (Clifton, N.J.), 2015).

Biological target: His-Rab7 (UniProt P51149 1-207)
Assay: bead-based flow cytometry

Chain of His-Rab7 (P51149 whole entry): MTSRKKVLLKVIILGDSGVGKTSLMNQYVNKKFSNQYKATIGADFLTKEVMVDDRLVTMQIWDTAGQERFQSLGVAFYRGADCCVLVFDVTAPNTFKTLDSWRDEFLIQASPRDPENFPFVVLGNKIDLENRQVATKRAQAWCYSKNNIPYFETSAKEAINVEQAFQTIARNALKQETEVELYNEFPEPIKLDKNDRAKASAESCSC

Kd: 1870 ± 250 nM
B1: GST-RILP (Rab binding domain of RILP only) (domain or fragment, UniProt Q96NA2 240-316, looked up)
chain: QCRFSREEFEQILQERNELKAKVFLLKEELAYFQRELLTDHRVPGLLLEAMKVAVRKQRKKIKAKMLGTPEEAESSE
